{"source": "patent US20210100896A1", "about": "“METHODS AND COMPOSITIONS FOR STIMULATING THE IMMUNE SYSTEM” (University of Miami, priority 2017, published 2021)", "origin": "cited, not measured here", "molecules": {"B1": {"name": "Flt3L: cytokine that promotes hematopoietic progenitor commitment to the DC lineage (protein, UniProt P49771 27-235, looked up)", "Fms-related tyrosine kinase 3 …": "TQDCSFQHSPISSDFAVKIRELSDYLLQDYPVTVASNLQDEELCGGLWRLVLAQRWMERLKTVAGSKMQGLLERVNTEIHFVTKCAFQPPPSCLRFVQTNISRLLQETSEQLVALKPWITRQNFSRCLELQCQPDSSTLPPPWSPRPLEATAPTAPQPPLLLLLLLPVGLLLLAAAWCLHWQRTRRRTPRPGEQVPPVPSPQDLLLVEH"}}, "tested_on": "tumor", "settings": "tumor bearing mice"}
{"molecule": "B1", "values": [{"measurement": "intratumoral accumulation of DC and tumor inhibition", "result": "enhanced intratumoral accumulation of DC and tumor inhibition"}]}
